The test addresses T1, MDNA132LR-Fc (1:1 KIH) (Homo sapiens (Human), UniProt P0DOX5 223-448 = IgG part).
T1 construct: also called MDNA132^L39/R111-Fc (1:1 KIH); MDNA132-Fc
The test can be described thus: SPR, construct captured on anti-human IgG (Fc) antibody on a CM5 chip, human receptor as analyte. Background: In SPR one partner is held on a chip, and binding of the other changes the refractive index at the surface.

These results are taken from patent US20250387474A1 (MEDICENNA THERAPEUTICS, published 2025).

B1: human IL-13Rα2 (receptor, UniProt Q14627 27-343, looked up)
chain: DTEIKVNPPQDFEIVDPGYLGYLYLQWQPPLSLDHFKECTVEYELKYRNIGSETWKTIITKNLHYKDGFDLNKGIEAKIHTLLPWQCTNGSEVQSSWAETTYWISPQGIPETKVQDMDCVYYNWQYLLCSWKPGIGVLLDTNYNLFYWYEGLDHALQCVDYIKADGQNIGCRFPYLEASDYKDFYICVNGSSENKPIRSSYFTFQLQNIVKPLPPVYLTFTRESSCEIKLKWSIPLGPIPARCFDYEIEIREDDTTLVTATVENETYTLKTTNETRQLCFVVRSKVNIYCSDDGIWSEWSDKQCWEGEDLSKKTLLR
notes: also called Human IL-13 R alpha 2 Protein; IL-13 decoy receptor
What is called Kd is the equilibrium constant for the complex coming apart. Low values mean a tighter complex, high ones a looser complex. The molecule B1 gave a Kd of 3.6 nM.

B2: human IL-13Rα1 (receptor)
chain: GGGGAAPTETQPPVTNLSVSVENLCTVIWTWNPPEGASSNCSLWYFSHFGDKQDKKIAPETRRSIEVPLNERICLQVGSQCSTNESEKPSILVEKCISPPEGDPESAVTELQCIWHNLSYMKCSWLPGRNTSPDTNYTLYYWHRSLEKIHQCENIFREGQYFGCSFDLTKVKDSSFEQHSVQIMVKDNAGKIKPSFNIVPLTSRVKPDPPHIKNLSFHNDDLYVQWENPQNFISRCLFYEVEVNNSQTETHNVFYVQEAKCENPEFERNVENTSCFMVPGVLPDTLNTVRIRVKTNKLCYEDDKLWSNWSQEMSIGKKRNST
notes: also called Human IL-13 R alpha 1 Protein; IL-13 functional receptor
Consider B2, for which the binding result was “no binding (tested: 1000 nM)”.
